# Experimental data published in patent US20250064890A1, “PROTEIN COMPOSITIONS FOR THE TREATMENT OF INFLAMMATORY DISEASES” (Unichem Laboratories Limited, priority 2021, published 2025).
# Columns and labels:
# Assay type in all cases: cell-based, human
# IL-1β [1] = experiment: Multiplex analysis, radiotherapy, TR146
# Procedure: (§1) Oral buccal mucosal cells (TR146) cells were incubated overnight at 37° C. in 5% CO2 incubator. […] The cells were then stimulated with 5-FU (10 mM) for another 24h for chemotherapy and with gamma radiation (3.5 kGy) using Cobalt 60 for radiotherapy. After 24 h, cell culture supernatants were collected from each well and stored at −20° C. till multiplex analysis. For NF-kB estimations, cell lysates were prepared. Levels of biomarkers were estimated using Magpix® multiplex machine. The cells treated with Amifostine (along with 5-FU or radiation) were considered as positive control (PC). Untreated cells (5-FU or radiation alone treated) were used as negative control (NC).
# (§2) The percent modulation in each sample was determined as follows:
# (§3) [{Concentration of biomarkers (pg/ml) in Control cells (5-FU or radiation alone treated)−Concentration of biomarkers (pg/ml) in SEQ ID NO: 2+5-FU or radiation treated cells)}/Concentration of biomarkers (pg/ml) in Control cells (5-FU or radiation alone treated)]*100
# TNF-α = experiment: Multiplex analysis, radiotherapy, TR146
# Procedure: as §1, §2, §3
# RAGE = experiment: Multiplex analysis, radiotherapy, TR146
# Procedure: as §1, §2, §3
# MMP-3 = experiment: Multiplex analysis, radiotherapy, TR146
# Procedure: as §1, §2, §3
# MMP-8 = experiment: Multiplex analysis, radiotherapy, TR146
# Procedure: as §1, §2, §3
# VEGF [2] = experiment: Multiplex analysis, radiotherapy, TR146
# Procedure: as §1, §2, §3
# CCL-2 = experiment: Multiplex analysis, radiotherapy, TR146
# Procedure: as §1, §2, §3
# IL-6 = experiment: Multiplex analysis, radiotherapy, TR146
# Procedure: as §1, §2, §3
# IL-1β [3] = experiment: Multiplex analysis, chemotherapy (5-FU), TR146; settings: for IL-1-β against chemotherapy induced levels: 5-FU, in words
# Procedure: as §1, §2, §3
# IL-12/IL-23p40 = experiment: Multiplex analysis, chemotherapy (5-FU), TR146; settings: for IL-12/IL-23p40 against chemotherapy induced levels: 5-FU, in words
# Procedure: as §1, §2, §3
# VEGF [4] = experiment: Multiplex analysis, chemotherapy (5-FU), TR146; settings: for VEGF against chemotherapy induced levels: 5-FU, in words
# Procedure: as §1, §2, §3
# [5] = 0.01 μg/ml + Radiation (3.5 kGy)
# [6] = 0.1 μg/ml + Radiation (3.5 kGy)
molecule,measurement,setting,value
"SEQ ID NO 2: recombinant lectin, variant of the S. rolfsii lectin amino acid sequence (reported as Rec-2 in WO 2010/095143) (protein) TYKITVRVYQTNPDAFFHPVEKTVWKYANGGTWTITDDQHVLTMGGSGTSGTLRFHADNGESFTATFGVHNYKRWCDIVTNLAADETGMVINQQYYSQKNREEARERQLSNYQVKNAKGRNFQIVYTEAEGNDLHANLIIG",Percentage Inhibition IL-1β,IL-1β [1]; [5],−17.3%
same,Percentage Inhibition IL-1β,IL-1β [1]; [6],−15.1%
same,Percentage Inhibition IL-1β,IL-1β [1]; 1 μg/ml + Radiation (3.5 kGy),−11.5%
same,Percentage Inhibition IL-1β,IL-1β [1]; 10 μg/ml + Radiation (3.5 kGy),−44.8%
same,Percentage Inhibition IL-1β,IL-1β [1]; 25 μg/ml + Radiation (3.5 kGy),−97.1%
same,Percentage Inhibition TNF-α,TNF-α; [5],43.2%
same,Percentage Inhibition TNF-α,TNF-α; [6],45.2%
same,Percentage Inhibition TNF-α,TNF-α; 1 μg/ml + Radiation (3.5 kGy),39.6%
same,Percentage Inhibition TNF-α,TNF-α; 10 μg/ml + Radiation (3.5 kGy),47.1%
same,Percentage Inhibition TNF-α,TNF-α; 25 μg/ml + Radiation (3.5 kGy),41%
same,TNF-α against radiation induced levels,"TNF-α; radiation, in words",downregulation
same,Percentage Inhibition RAGE,RAGE; [5],38.8%
same,Percentage Inhibition RAGE,RAGE; [6],42.6%
same,Percentage Inhibition RAGE,RAGE; 1 μg/ml + Radiation (3.5 kGy),47.6%
same,Percentage Inhibition RAGE,RAGE; 10 μg/ml + Radiation (3.5 kGy),53.5%
same,Percentage Inhibition RAGE,RAGE; 25 μg/ml + Radiation (3.5 kGy),39.1%
same,RAGE against radiation induced levels,"RAGE; radiation, in words",downregulation
same,Percentage Inhibition MMP-3,MMP-3; [5],42.8%
same,Percentage Inhibition MMP-3,MMP-3; [6],51.9%
same,Percentage Inhibition MMP-3,MMP-3; 1 μg/ml + Radiation (3.5 kGy),47.4%
same,Percentage Inhibition MMP-3,MMP-3; 10 μg/ml + Radiation (3.5 kGy),47.4%
same,Percentage Inhibition MMP-3,MMP-3; 25 μg/ml + Radiation (3.5 kGy),28.8%
same,MMP-3 against radiation induced levels,"MMP-3; radiation, in words",downregulation
same,Percentage Inhibition MMP-8,MMP-8; [5],1.8%
same,Percentage Inhibition MMP-8,MMP-8; [6],13.9%
same,Percentage Inhibition MMP-8,MMP-8; 1 μg/ml + Radiation (3.5 kGy),11%
same,Percentage Inhibition MMP-8,MMP-8; 10 μg/ml + Radiation (3.5 kGy),8.5%
same,Percentage Inhibition MMP-8,MMP-8; 25 μg/ml + Radiation (3.5 kGy),7.6%
same,MMP-8 against radiation induced levels,"MMP-8; radiation, in words",downregulation
same,Percentage Inhibition VGEF,VEGF [2]; [5],0.9%
same,Percentage Inhibition VGEF,VEGF [2]; [6],−8.1%
same,Percentage Inhibition VGEF,VEGF [2]; 1 μg/ml + Radiation (3.5 kGy),8.4%
same,Percentage Inhibition VGEF,VEGF [2]; 10 μg/ml + Radiation (3.5 kGy),23.3%
same,Percentage Inhibition VGEF,VEGF [2]; 25 μg/ml + Radiation (3.5 kGy),29.7%
same,VEGF against radiation induced levels,"VEGF [2]; radiation, in words",downregulation
same,Percentage Inhibition CCL-2,CCL-2; [5],0.1%
same,Percentage Inhibition CCL-2,CCL-2; [6],23.1%
same,Percentage Inhibition CCL-2,CCL-2; 1 μg/ml + Radiation (3.5 kGy),23.1%
same,Percentage Inhibition CCL-2,CCL-2; 10 μg/ml + Radiation (3.5 kGy),23.1%
same,Percentage Inhibition CCL-2,CCL-2; 25 μg/ml + Radiation (3.5 kGy),0%
same,CCL-2 against radiation induced levels,"CCL-2; radiation, in words",downregulation
same,Percentage Inhibition IL-6,IL-6; [5],−0.2%
same,Percentage Inhibition IL-6,IL-6; [6],3.1%
same,Percentage Inhibition IL-6,IL-6; 1 μg/ml + Radiation (3.5 kGy),3.8%
same,Percentage Inhibition IL-6,IL-6; 10 μg/ml + Radiation (3.5 kGy),7.7%
same,Percentage Inhibition IL-6,IL-6; 25 μg/ml + Radiation (3.5 kGy),5.2%
same,Percentage Inhibition IL-1β,IL-1β [3]; 0.1 μg/ml + 5-FU (10 mM),5.5%
same,Percentage Inhibition IL-1β,IL-1β [3]; 10 μg/ml + 5-FU (10 mM),3.6%
same,Percentage Inhibition IL-1β,IL-1β [3]; 25 μg/ml + 5-FU (10 mM),11%
same,Percentage Inhibition IL-1β,IL-1β [3]; 50 μg/ml + 5-FU (10 mM),29.1%
same,Percentage Inhibition IL-1β,IL-1β [3]; 100 μg/ml + 5-FU (10 mM),23.5%
same,IL-1-β against chemotherapy induced levels,IL-1β [3],lowering of levels
same,IL-1-β against chemotherapy induced levels,IL-1β [3]; listed as test items,downregulation
same,Percentage Inhibition IL-12/IL-23p40,IL-12/IL-23p40; 0.1 μg/ml + 5-FU (10 mM),13.5%
same,Percentage Inhibition IL-12/IL-23p40,IL-12/IL-23p40; 10 μg/ml + 5-FU (10 mM),33.8%
same,Percentage Inhibition IL-12/IL-23p40,IL-12/IL-23p40; 25 μg/ml + 5-FU (10 mM),36.8%
same,Percentage Inhibition IL-12/IL-23p40,IL-12/IL-23p40; 50 μg/ml + 5-FU (10 mM),42.6%
same,Percentage Inhibition IL-12/IL-23p40,IL-12/IL-23p40; 100 μg/ml + 5-FU (10 mM),36.6%
same,IL-12/IL-23p40 against chemotherapy induced levels,IL-12/IL-23p40,lowering of levels
same,IL-12/IL-23p40 against chemotherapy induced levels,IL-12/IL-23p40; listed as test items,downregulation
same,Percentage Inhibition VGEF,VEGF [4]; 0.1 μg/ml + 5-FU (10 mM),25%
same,Percentage Inhibition VGEF,VEGF [4]; 10 μg/ml + 5-FU (10 mM),24.4%
same,Percentage Inhibition VGEF,VEGF [4]; 25 μg/ml + 5-FU (10 mM),28%
same,Percentage Inhibition VGEF,VEGF [4]; 50 μg/ml + 5-FU (10 mM),37.8%
same,Percentage Inhibition VGEF,VEGF [4]; 100 μg/ml + 5-FU (10 mM),41.7%
same,VEGF against chemotherapy induced levels,VEGF [4],lowering of levels
same,VEGF against chemotherapy induced levels,VEGF [4]; listed as test items,downregulation
